Reference: patent publication US20230357422A1 (published 2023)

target: T1, 4-1BB antigen (human, UniProt Q07011 24-186, limits assumed); experiment: BLI (ForteBio), antibody on AHQ sensor, 100 nM 4-1BB antigen, 1:1 model
T1 construct: also called human 4-1BB antigen; human 4-1BB protein
Method: ForteBio affinity determination was performed according to the existing method (Estep, P et al., Solution-based measurement of high-throughput antibody-antigen affinity and epitope classification, MAbs, 2013.5(2):p. 270-8). Briefly, the sensor was equilibrated offline for 30 min in the assay buffer, then the baseline was established by detection online for 60 s, and the purified antibody obtained as described above was loaded onto the AHQ sensor online. Then, the sensor was put into 100 nM 4-1BB antigen to act for 5 minutes, and the sensor was transferred to PBS and dissociated for 5 minutes. Analysis of kinetics was performed using a 1:1 binding model.

T1 sequence (Q07011 24-186 limits assumed): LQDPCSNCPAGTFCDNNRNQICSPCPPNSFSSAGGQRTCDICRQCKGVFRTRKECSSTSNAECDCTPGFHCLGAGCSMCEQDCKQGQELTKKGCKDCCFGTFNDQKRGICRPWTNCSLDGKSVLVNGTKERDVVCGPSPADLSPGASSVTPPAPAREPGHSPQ

Binder | Kd [nM]
A-Ye-20 (Fc fusion) QVQLQESGGGLVQAGGSLRLSCAASGFTFDDYAIGWFRQAPGKEREGVLCISSSGGSTYYADSVKGRFTISRDNAKNTVYLQMTNLKPEDTAVYLCGAPRDCSYYTSDDYWGQGTQVTVSSTHTCPPCPAPEAAGGPSVFLFPPKPKDTLMISRTPEVTCVVVDVSHEDPEVKFNWYVDGVEVHNAKTKPREEQYNSTYRVVSVLTVLHQDWLNGKEYKCKVSNKALPAPIEKTISKAKGQPREPQVYTLPPSREEMTKNQVSLTCLVKGFYPSDIAVEWESNGQPENNYKTTPPVLDSDGSFFLYSKLTVDKSRWQQGNVFSCSVMHEALHNHYTQKSLSLSPG | 26.8
A-Ye-14 (Fc fusion) QVQLQESGGGLVQPGGSLRLSCAASGFSLGLYAIGWFRQAPGKEREWVSCIMSSDSSAYYADSVKGRFTVSRDNAKNTVYLQMNRLKPEDTAVYYCAAPQSDCFHYSENDYWGQGTQVTVSSTHTCPPCPAPEAAGGPSVFLFPPKPKDTLMISRTPEVTCVVVDVSHEDPEVKFNWYVDGVEVHNAKTKPREEQYNSTYRVVSVLTVLHQDWLNGKEYKCKVSNKALPAPIEKTISKAKGQPREPQVYTLPPSREEMTKNQVSLTCLVKGFYPSDIAVEWESNGQPENNYKTTPPVLDSDGSFFLYSKLTVDKSRWQQGNVFSCSVMHEALHNHYTQKSLSLSPG | 14.5
A-Ye-19 (Fc fusion) QVQLQESGGGLVQAGGSLRLSCAASGFSLGLYAIGWFRQAPGKEREWVSCIMSSDSSAYYADSVKGRFTVSRDNAKNTVYLQMNRLKPEDTAVYYCAAPQSDCFHYSENDYWGQGTQVTVSSTHTCPPCPAPEAAGGPSVFLFPPKPKDTLMISRTPEVTCVVVDVSHEDPEVKFNWYVDGVEVHNAKTKPREEQYNSTYRVVSVLTVLHQDWLNGKEYKCKVSNKALPAPIEKTISKAKGQPREPQVYTLPPSREEMTKNQVSLTCLVKGFYPSDIAVEWESNGQPENNYKTTPPVLDSDGSFFLYSKLTVDKSRWQQGNVFSCSVMHEALHNHYTQKSLSLSPG | 13
A-Ye-21 (Fc fusion) QVQLQESGGGLVQPGGSLRLSCAASGFSLDYYAIGWFRQAPGKEREWVSCIMSSDSSAYYADSVKGRFTISRDNAKNLVYLRMNSLKPEDTAVYYCTAPRSDCFHYGENDYWGQGTQVTVSSTHTCPPCPAPEAAGGPSVFLFPPKPKDTLMISRTPEVTCVVVDVSHEDPEVKFNWYVDGVEVHNAKTKPREEQYNSTYRVVSVLTVLHQDWLNGKEYKCKVSNKALPAPIEKTISKAKGQPREPQVYTLPPSREEMTKNQVSLTCLVKGFYPSDIAVEWESNGQPENNYKTTPPVLDSDGSFFLYSKLTVDKSRWQQGNVFSCSVMHEALHNHYTQKSLSLSPG | 23

More lines, now with the values ahead:

Kd [nM] | Binder
13.5 | A-Ye-25 (Fc fusion) QVQLQESGGGLVQVGGSLRLSCAASGFTFDDYAIGWFRQAPGKEREGVLCISSSGGSTYYADSLKGRFTISRDNAKNTVYLQMTNLKPEDTAVYLCGAPRDCSLYTGDDYWGQGTQVTVSSTHTCPPCPAPEAAGGPSVFLFPPKPKDTLMISRTPEVTCVVVDVSHEDPEVKFNWYVDGVEVHNAKTKPREEQYNSTYRVVSVLTVLHQDWLNGKEYKCKVSNKALPAPIEKTISKAKGQPREPQVYTLPPSREEMTKNQVSLTCLVKGFYPSDIAVEWESNGQPENNYKTTPPVLDSDGSFFLYSKLTVDKSRWQQGNVFSCSVMHEALHNHYTQKSLSLSPG
7.55 | A-Ye-27 (Fc fusion) QVQLQESGGGLVQPGGSLRLSCAASGFSLGLYAIGWFRQAPGKEREWVSCIMSSDSSAYYADSVKGRFTVSRDNAKNTVYLQMTNLKPEDTAVYLCGAPRDCSRYSSDDYWGQGTQVTVSSTHTCPPCPAPEAAGGPSVFLFPPKPKDTLMISRTPEVTCVVVDVSHEDPEVKFNWYVDGVEVHNAKTKPREEQYNSTYRVVSVLTVLHQDWLNGKEYKCKVSNKALPAPIEKTISKAKGQPREPQVYTLPPSREEMTKNQVSLTCLVKGFYPSDIAVEWESNGQPENNYKTTPPVLDSDGSFFLYSKLTVDKSRWQQGNVFSCSVMHEALHNHYTQKSLSLSPG
